These results are taken from patent US20190358305A1.

In the experiment the target is Recombinant human active MMP-3 (ab96555, Abcam) (human) (UniProt P08254). Kind of experiment: cell-based or functional assay.
Chain of UniProt P08254 (P08254 100-477 limits assumed): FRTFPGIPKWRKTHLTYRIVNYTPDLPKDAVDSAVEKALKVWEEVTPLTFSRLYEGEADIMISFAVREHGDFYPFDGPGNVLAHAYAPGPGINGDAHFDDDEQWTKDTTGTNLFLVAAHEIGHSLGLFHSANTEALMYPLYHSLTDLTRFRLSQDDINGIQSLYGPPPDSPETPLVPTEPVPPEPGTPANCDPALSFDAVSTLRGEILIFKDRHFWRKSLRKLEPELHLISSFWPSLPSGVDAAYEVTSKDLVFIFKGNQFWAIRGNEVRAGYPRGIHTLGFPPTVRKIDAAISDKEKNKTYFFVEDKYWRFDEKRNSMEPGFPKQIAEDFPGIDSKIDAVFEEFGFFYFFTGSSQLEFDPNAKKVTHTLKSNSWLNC

With “Recombinant human active TIMP-1 (ab82104, Abcam) (from UniProt P01033 24-207)”, the TEER reduction of HTM monolayers over 24 h: 10 ng/ml active MMP-3 against MMP-3 inactivated by incubation with TIMP-1 is 4.29 Ohm·cm^2, the TEER reduction of SCEC monolayers over 24 h: 10 ng/ml active MMP-3 against MMP-3 inactivated by incubation with TIMP-1 is 5.62 Ohm·cm^2, the increase in paracellular flux (Papp) of 70 kDa FITC-dextran through HTM monolayers: active MMP-3 against TIMP-1-inactivated MMP-3 is 4e-05 ×10⁻⁶ cm/s and the increase in paracellular flux (Papp) of 70 kDa FITC-dextran through SCEC monolayers: active MMP-3 against TIMP-1-inactivated MMP-3 was 0.00014 ×10⁻⁶ cm/s.
